These results are taken from PMC3658177.

The series has as its system GST-YTHDF2 (human). Briefly: EMSA. The conditions noted are these: one N6-methyladenosine. Background: In EMSA bound probe runs differently from free probe, usually more slowly.

In the case of m6A-RNA, the equilibrium dissociation constant (Kd) – broadly, the concentration at which binding is half-saturated – is 465 nM.
